Laboratory results as given in PMC3042207 (British Journal of Pharmacology, 2011).
Where “and” joins values, the source holds several entries; their conditions need not be identical. Equal values may be shown once. Read-outs that look alike come from different tables or passages of the source. Values belong to the molecule of their own block, whether it stands above or below them.

Experiments:
[1] = system: human liver microsomes (HLM); assay: CYP inhibition: 4-HPR metabolite formation in HLM with CYP inhibitors; format: in vitro ADME; details: HLM + 4-HPR; inhibitor alone at 100 µM
CYP2C8 = details: ref Ong et al., 2000; cited from earlier work
[2] = substrate: CC1=C(/C=C/C(C)=C/C=C/C(C)=C/C(=O)Nc2ccc(O)cc2)C(C)(C)CCC1; assay: Metabolism of 4-HPR by CYP2C8 supersomes; format: in vitro ADME, human; details: other: CYP2C8 supersomes; 4-HPR 0-20 µM, 3 h; 37.0 °C
[3] = substrate: CC1=C(/C=C/C(C)=C/C=C/C(C)=C/C(=O)Nc2ccc(O)cc2)C(C)(C)CCC1; format: in vitro ADME, human; details: other: CYP2C8*3, E. coli membranes; 4-HPR 0-20 µM, 3 h; pH 5.0
[4] = substrate: CC1=C(/C=C/C(C)=C/C=C/C(C)=C/C(=O)Nc2ccc(O)cc2)C(C)(C)CCC1; assay: Glucuronidation of 4-HPR by UGT 1A1 supersomes; format: in vitro ADME, human; details: other: UGT 1A1, 1 mg·mL^−1; 4-HPR 0-2000 µM, 3 h; 37.0 °C
[5] = substrate: CC1=C(/C=C/C(C)=C/C=C/C(C)=C/C(=O)Nc2ccc(O)cc2)C(C)(C)CCC1; assay: Metabolism of 4-HPR by CYP3A5 supersomes; format: in vitro ADME, human; details: other: CYP3A5 supersomes; 4-HPR 0-20 µM, 3 h; 37.0 °C
[6] = substrate: CC1=C(/C=C/C(C)=C/C=C/C(C)=C/C(=O)Nc2ccc(O)cc2)C(C)(C)CCC1; assay: Glucuronidation of 4-HPR by UGT 1A6 supersomes; format: in vitro ADME, human; details: other: UGT 1A6, 1 mg·mL^−1; 4-HPR 0-2000 µM, 3 h; 37.0 °C
[7] = substrate: CC1=C(/C=C/C(C)=C/C=C/C(C)=C/C(=O)Nc2ccc(O)cc2)C(C)(C)CCC1; assay: Glucuronidation of 4-HPR by UGT 1A3 supersomes; format: in vitro ADME, human; details: other: UGT 1A3, 1 mg·mL^−1; 4-HPR 0-2000 µM, 3 h; 37.0 °C

- effect on production of 4′-OH 4-HPR and 4′-oxo 4-HPR, inhibitor alone [1]: very little effect
Molecule: COc1ccc2[nH]c([S+]([O-])Cc3ncc(C)c(OC)c3C)nc2c1 (centres unmarked) [Omeprazole, omeprazole]

Molecule: CC(=O)N1CCN(c2ccc(OCC3COC(Cn4ccnc4)(c4ccc(Cl)cc4Cl)O3)cc2)CC1 (centres unmarked) [Ketoconazole, ketoconazole]
- concentrations at which CYP2C8 is markedly inhibited (CYP2C8): > 10 µM

B1: CYP2C8 (Homo sapiens) (protein)
chain: MEPFVVLVLCLSFMLLFSLWRQSCRRRKLPPGPTPLPIIGNMLQIDVKDICKSFTNFSKVYGPVFTVYFGMNPIVVFHGYEAVKEALIDNGEEFSGRGNSPISQRITKGLGIISSNGKRWKEIRRFSLTTLRNFGMGKRSIEDRVQEEAHCLVEELRKTKASPCDPTFILGCAPCNVICSVVFQKRFDYKDQNFLTLMKRFNENFRILNSPWIQVCNNFPLLIDCFPGTHNKVLKNVALTRSYIREKVKEHQASLDVNNPRDFIDCFLIKMEQEKDNQKSEFNIENLVGTVADLFVAGTETTSTTLRYGLLLLLKHPEVTAKVQEEIDHVIGRHRSPCMQDRSHMPYTDAVVHEIQRYSDLVPTGVPHAVTTDTKFRNYLIPKGTTIMALLTSVLHDDKEFPNPNIFDPGHFLDKNGNFKKSDYFMPFSAGKRICAGEGLARMELFLFLTTILQNFNLKSVDDLKNLNTTAVTKGIVSLPPSYQICFIPV
- Km [2]: 5.0 ± 3.1 µM and 2.2 ± 1.1 µM

B2: CYP2C8*3 (Homo sapiens; K399R/R139K) (protein)
chain: MEPFVVLVLCLSFMLLFSLWRQSCRRRKLPPGPTPLPIIGNMLQIDVKDICKSFTNFSKVYGPVFTVYFGMNPIVVFHGYEAVKEALIDNGEEFSGRGNSPISQRITKGLGIISSNGKRWKEIRRFSLTTLRNFGMGKKSIEDRVQEEAHCLVEELRKTKASPCDPTFILGCAPCNVICSVVFQKRFDYKDQNFLTLMKRFNENFRILNSPWIQVCNNFPLLIDCFPGTHNKVLKNVALTRSYIREKVKEHQASLDVNNPRDFIDCFLIKMEQEKDNQKSEFNIENLVGTVADLFVAGTETTSTTLRYGLLLLLKHPEVTAKVQEEIDHVIGRHRSPCMQDRSHMPYTDAVVHEIQRYSDLVPTGVPHAVTTDTKFRNYLIPKGTTIMALLTSVLHDDREFPNPNIFDPGHFLDKNGNFKKSDYFMPFSAGKRICAGEGLARMELFLFLTTILQNFNLKSVDDLKNLNTTAVTKGIVSLPPSYQICFIPV
- Km [3]: 18.8 ± 8.3 µM and 8.6 ± 2.5 µM

B3: UGT 1A1 (Homo sapiens) (protein)
chain: HAGKILLIPVDGSHWLSMLGAIQQLQQRGHEIVVLAPDASLYIRDGAFYTLKTYPVPFQREDVKESFVSLGHNVFENDSFLQRVIKTYKKIKKDSAMLLSGCSHLLHNKELMASLAESSFDVMLTDPFLPCSPIVAQYLSLPTVFFLHALPCSLEFEATQCPNPFSYVPRPLSSHSDHMTFLQRVKNMLIAFSQNFLCDVVYSPYATLASEFLQREVTVQDLLSSASVWLFRSDFVKDYPRPIMPNMVFVGGINCLHQNPLSQEFEAYINASGEHGIVVFSLGSMVSEIPEKKAMAIADALGKIPQTVLWRYTGTRPSNLANNTILVKWLPQNDLLGHPMTRAFITHAGSHGVYESICNGVPMVMMPLFGDQMDNAKRMETKGAGVTLNVLEMTSEDLENALKAVINDKSYKENIMRLSSLHKDRPVEPLDLAVFWVEFVMRHKGAPHLRPAAHDLTWYQYHSLDVIGFLLAVVLTVAFITFKCCAYGYRKCLGKKGRVKKAHKSKTH
- Km [4]: 716 ± 87 µM

B4: CYP3A5 (Homo sapiens) (protein)
chain: MDLIPNLAVETWLLLAVSLVLLYLYGTRTHGLFKRLGIPGPTPLPLLGNVLSYRQGLWKFDTECYKKYGKMWGTYEGQLPVLAITDPDVIRTVLVKECYSVFTNRRSLGPVGFMKSAISLAEDEEWKRIRSLLSPTFTSGKLKEMFPIIAQYGDVLVRNLRREAEKGKPVTLKDIFGAYSMDVITGTSFGVNIDSLNNPQDPFVESTKKFLKFGFLDPLFLSIILFPFLTPVFEALNVSLFPKDTINFLSKSVNRMKKSRLNDKQKHRLDFLQLMIDSQNSKETESHKALSDLELAAQSIIFIFAGYETTSSVLSFTLYELATHPDVQQKLQKEIDAVLPNKAPPTYDAVVQMEYLDMVVNETLRLFPVAIRLERTCKKDVEINGVFIPKGSMVVIPTYALHHDPKYWTEPEEFRPERFSKKKDSIDPYIYTPFGTGPRNCIGMRFALMNMKLALIRVLQNFSFKPCKETQIPLKLDTQGLLQPEKPIVLKVDSRDGTLSGE
- Km [5]: 19.1 ± 5.0 µM

B5: UGT 1A6 (Homo sapiens) (protein)
chain: DKLLVVPQDGSHWLSMKDIVEVLSDRGHEIVVVVPEVNLLLKESKYYTRKIYPVPYDQEELKNRYQSFGNNHFAERSFLTAPQTEYRNNMIVIGLYFINCQSLLQDRDTLNFFKESKFDALFTDPALPCGVILAEYLGLPSVYLFRGFPCSLEHTFSRSPDPVSYIPRCYTKFSDHMTFSQRVANFLVNLLEPYLFYCLFSKYEELASAVLKRDVDIITLYQKVSVWLLRYDFVLEYPRPVMPNMVFIGGINCKKRKDLSQEFEAYINASGEHGIVVFSLGSMVSEIPEKKAMAIADALGKIPQTVLWRYTGTRPSNLANNTILVKWLPQNDLLGHPMTRAFITHAGSHGVYESICNGVPMVMMPLFGDQMDNAKRMETKGAGVTLNVLEMTSEDLENALKAVINDKSYKENIMRLSSLHKDRPVEPLDLAVFWVEFVMRHKGAPHLRPAAHDLTWYQYHSLDVIGFLLAVVLTVAFITFKCCAYGYRKCLGKKGRVKKAHKSKTH
- Km [6]: 422 ± 46 µM

B6: UGT 1A3 (Homo sapiens) (protein)
chain: GKVLVVPIDGSHWLSMREVLRELHARGHQAVVLTPEVNMHIKEENFFTLTTYAISWTQDEFDRHVLGHTQLYFETEHFLKKFFRSMAMLNNMSLVYHRSCVELLHNEALIRHLNATSFDVVLTDPVNLCAAVLAKYLSIPTVFFLRNIPCDLDFKGTQCPNPSSYIPRLLTTNSDHMTFMQRVKNMLYPLALSYICHAFSAPYASLASELFQREVSVVDILSHASVWLFRGDFVMDYPRPIMPNMVFIGGINCANRKPLSQEFEAYINASGEHGIVVFSLGSMVSEIPEKKAMAIADALGKIPQTVLWRYTGTRPSNLANNTILVKWLPQNDLLGHPMTRAFITHAGSHGVYESICNGVPMVMMPLFGDQMDNAKRMETKGAGVTLNVLEMTSEDLENALKAVINDKSYKENIMRLSSLHKDRPVEPLDLAVFWVEFVMRHKGAPHLRPAAHDLTWYQYHSLDVIGFLLAVVLTVAFITFKCCAYGYRKCLGKKGRVKKAHKSKTH
- Km [7]: 389 ± 53 µM
